In patent publication US20080213836A1:

What was measured:
[1] = biological target: Medaka EP-1 serine protease domain (wild-type) (Oryzias latipes (Japanese Medaka)); test: cell-based or functional assay
[2] = biological target: Medaka EP-2 serine protease domain (Oryzias latipes (Japanese Medaka)); test: cell-based or functional assay

Sequence of Medaka EP-1 serine protease domain (wild-type) (Oryzias latipes (Japanese Medaka)) (chain, as listed by the source limits assumed): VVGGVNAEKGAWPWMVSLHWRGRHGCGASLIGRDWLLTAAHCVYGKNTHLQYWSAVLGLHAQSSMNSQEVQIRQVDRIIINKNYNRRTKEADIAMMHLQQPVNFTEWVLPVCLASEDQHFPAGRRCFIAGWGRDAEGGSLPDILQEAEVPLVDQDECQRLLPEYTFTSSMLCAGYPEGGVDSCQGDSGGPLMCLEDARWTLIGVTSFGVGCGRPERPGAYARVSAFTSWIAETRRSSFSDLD

- Inhibition (%) of GD4K-βNA hydrolysis at 0.1 mg/ml [1]: 99%
- Inhibition (%) of GD4K-βNA hydrolysis at 0.1 mg/ml [2]: 99%
Substance: SBTI (from UniProt P01070 25-205)
